# Results published in paper PMC4041446, “Eukaryotic and archaeal TBP and TFB/TF(II)B follow different promoter DNA bending pathways”.
# T1: MjTBP;MjTFB (Methanocaldococcus jannaschii;Methanocaldococcus jannaschii) (UniProt Q57930+Q58192+Q58192)
# T1 sequence 1: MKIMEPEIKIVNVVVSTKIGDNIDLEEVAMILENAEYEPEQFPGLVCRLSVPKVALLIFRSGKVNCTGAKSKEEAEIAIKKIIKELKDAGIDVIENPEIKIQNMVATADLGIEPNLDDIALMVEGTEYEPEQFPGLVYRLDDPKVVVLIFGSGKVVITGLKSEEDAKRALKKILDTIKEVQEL
# T1 sequence 2: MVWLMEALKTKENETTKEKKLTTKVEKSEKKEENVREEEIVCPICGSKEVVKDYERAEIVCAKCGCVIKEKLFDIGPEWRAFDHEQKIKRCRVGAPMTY
# T1 sequence 3: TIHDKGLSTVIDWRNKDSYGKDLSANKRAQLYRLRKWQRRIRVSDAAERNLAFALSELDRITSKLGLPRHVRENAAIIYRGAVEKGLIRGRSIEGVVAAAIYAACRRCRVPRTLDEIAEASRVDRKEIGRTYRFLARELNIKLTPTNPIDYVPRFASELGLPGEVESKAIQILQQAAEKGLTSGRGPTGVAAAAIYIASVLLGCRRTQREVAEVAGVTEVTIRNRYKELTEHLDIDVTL
# T2: ScTBP;ScTF(II)B (Saccharomyces cerevisiae;Saccharomyces …, UniProt P13393;P29055 1-240;1-345, |)
# T2 sequence 1: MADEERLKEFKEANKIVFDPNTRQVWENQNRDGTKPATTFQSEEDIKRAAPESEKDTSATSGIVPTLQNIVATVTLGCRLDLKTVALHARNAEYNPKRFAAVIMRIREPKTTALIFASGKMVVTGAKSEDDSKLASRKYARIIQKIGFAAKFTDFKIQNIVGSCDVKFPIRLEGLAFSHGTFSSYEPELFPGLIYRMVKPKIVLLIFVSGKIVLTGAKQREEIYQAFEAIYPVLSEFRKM
# T2 sequence 2: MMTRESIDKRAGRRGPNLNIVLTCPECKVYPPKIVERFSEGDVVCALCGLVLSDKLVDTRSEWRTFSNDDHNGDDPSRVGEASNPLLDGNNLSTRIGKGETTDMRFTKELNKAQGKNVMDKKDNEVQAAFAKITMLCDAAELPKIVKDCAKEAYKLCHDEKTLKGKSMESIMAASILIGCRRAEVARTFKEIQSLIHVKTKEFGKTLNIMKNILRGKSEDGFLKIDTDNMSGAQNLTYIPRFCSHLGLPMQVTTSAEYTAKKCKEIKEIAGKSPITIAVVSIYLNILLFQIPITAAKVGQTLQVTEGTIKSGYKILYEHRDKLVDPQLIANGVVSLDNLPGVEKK
# T3: ScTBP (Saccharomyces cerevisiae, UniProt P13393 1-240)
# T3 sequence: T2 sequence 1
# T4: MjTBP (Methanocaldococcus jannaschii, UniProt Q57930 1-183)
# T4 sequence: T1 sequence 1
# B1: DNAH2B (H2B promoter) (dsDNA)
# DNA 1: CTTCACCTTATTTGCATAAGCGATTCTATATAAAAGCGCCTCGCTCTACCCTGCTCACGCTGTTTTTCCTTTTCGTTGGC
# DNA 2: GCCAACGAAAAGGAAAAACAGCGTGAGCAGGGTAGAGCGAGGCGCTTTTATATAGAATCGCTTATGCAAATAAGGTGAAG
# B2: DNASSV (SSV T6 promoter) (dsDNA)
# DNA 1: CGGACCGAAAGCGCGACCATCGCCGGAGATTGGAGTAAAGTTTAAATACTG
# DNA 2: CAGTATTTAAACTTTACTCCAATCTCCGGCGATGGTCGCGCTTTCGGTCCG
# How the values were obtained:
# [1] = target: SaTBP;SaTFB (TFB1) (Sulfolobus acidocaldarius;Sulfolobus acidocaldarius) (UniProt Q9UWN7); assay: smFRET; settings: smFRET: N70 buffer (Mj) or N65 buffer (Sa), compositions in Table 1 not in the material, Sa EMSA: 10 mM MOPS pH 6.5, 180 mM NaCl, 20 mM KOAc, 11 mM MgCl2, 10% …
# [2] = target: T1, MjTBP;MjTFB (Methanocaldococcus jannaschii;Methanocaldococcus jannaschii); assay: smFRET; settings: MjTBP + MjTFB; smFRET: N70 buffer (Mj) or N65 buffer (Sa), compositions in Table 1 not in the material; Sa EMSA: 10 mM MOPS pH 6.5, 180 mM NaCl, 20 mM KOAc, 11 mM MgCl2, 10% …
# [3] = target: SaTBP;SaTFB (TFB1) (Sulfolobus acidocaldarius;Sulfolobus acidocaldarius) (UniProt Q9UWN7); assay: smFRET titration (confocal); settings: smFRET: N70 buffer (Mj) or N65 buffer (Sa), compositions in Table 1 not in the material, Sa EMSA: 10 mM MOPS pH 6.5, 180 mM NaCl, 20 mM KOAc, 11 mM MgCl2, 10% …
# ScTBP;ScTF(II)B = target: T2, ScTBP;ScTF(II)B; assay: smFRET; TF(II)B stabilizes fully bent state; smFRET: N70 buffer (Mj) or N65 buffer (Sa), compositions in Table 1 not in the material; Sa EMSA: 10 mM MOPS pH 6.5, 180 mM NaCl, 20 mM KOAc, 11 mM MgCl2, 10% glycerol, 5 mM DTT, 1 ug BSA, 100 ug/ml heparin, 65 C 5 min; settings: protein: recombinant;recombinant; tags: ;; copies: 1;1; label: donor and ATTO647n acceptor
# ScTBP = target: T3, ScTBP; assay: smFRET titration (confocal); smFRET: N70 buffer (Mj) or N65 buffer (Sa), compositions in Table 1 not in the material; Sa EMSA: 10 mM MOPS pH 6.5, 180 mM NaCl, 20 mM KOAc, 11 mM MgCl2, 10% glycerol, 5 mM DTT, 1 ug BSA, 100 ug/ml heparin, 65 C 5 min; settings: protein: recombinant; label: donor and ATTO647n acceptor
# MjTBP = target: T4, MjTBP; assay: as above; settings: protein: recombinant; label: Cy3B or ATTO532 donor, ATTO647n acceptor
# Sequence of SaTBP;SaTFB (TFB1) (Sulfolobus acidocaldarius;Sulfolobus acidocaldarius) (Q9UWN7 whole entry, looked up): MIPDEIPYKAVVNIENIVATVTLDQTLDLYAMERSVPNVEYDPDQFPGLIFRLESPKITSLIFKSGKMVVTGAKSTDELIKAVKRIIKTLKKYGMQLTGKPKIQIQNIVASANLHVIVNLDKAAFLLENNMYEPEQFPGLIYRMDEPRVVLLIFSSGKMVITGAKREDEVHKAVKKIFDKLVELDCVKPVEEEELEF
molecule,measurement,setting,value
DNASSV-BRE,binding signal (% high FRET population),"[1]; SaTBP + SaTFB, main text says no second population",29
same,binding signal (% high FRET population),[2],62
CGGACCGAAAGCGCGACCATCGCCGGAGATTGGAGTAAAGTTTAAATACTG (double strand) [DNASSV (SSV T6 promoter)],binding signal (% high FRET population),"[1]; 6 uM SaTBP, 5 uM SaTFB",92
same,Kd,"[3]; SaTBP titrated, SaTFB 3 uM (Fig S7) or 2 uM",930 nM
same,Kd,"[3]; SaTFB titrated, 14 uM SaTBP",363 nM
B1,binding result,ScTBP;ScTF(II)B,binds
same,Kd,ScTBP,4.2 ± 1.2 nM
B2,Kd,MjTBP,48 ± 6 nM
